Results: patent US20230382974A1 (HANMI PHARM, published 2023)
Bridges are numbered along the chain shown (N, C = ends). Where no end group is shown, it is not given here. [ ]: non-standard residue; d: D form. Aib = CC(C)(N)C(=O)O

T1: human GIP receptor (human, UniProt P48546 22-466)
T1 sequence (looked up): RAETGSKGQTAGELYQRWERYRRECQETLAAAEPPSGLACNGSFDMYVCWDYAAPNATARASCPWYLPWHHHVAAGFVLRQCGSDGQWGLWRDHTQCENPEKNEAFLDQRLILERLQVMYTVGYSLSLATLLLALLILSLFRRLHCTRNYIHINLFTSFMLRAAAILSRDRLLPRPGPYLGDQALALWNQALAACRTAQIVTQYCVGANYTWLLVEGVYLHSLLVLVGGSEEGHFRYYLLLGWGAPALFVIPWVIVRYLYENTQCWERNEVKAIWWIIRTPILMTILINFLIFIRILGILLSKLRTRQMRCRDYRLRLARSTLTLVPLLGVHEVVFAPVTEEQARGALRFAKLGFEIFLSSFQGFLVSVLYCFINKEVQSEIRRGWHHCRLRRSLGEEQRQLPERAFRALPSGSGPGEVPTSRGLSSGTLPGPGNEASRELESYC


What was measured:
Assay in all cases: cell-based or functional assay
human glucagon receptor = human glucagon receptor (human, UniProt P47871 26-477)
human GIP receptor = biological target: T1, human GIP receptor
human GLP-1 receptor = human GLP-1 receptor (human, UniProt P43220 24-463)

Chain of human glucagon receptor (P47871 26-477): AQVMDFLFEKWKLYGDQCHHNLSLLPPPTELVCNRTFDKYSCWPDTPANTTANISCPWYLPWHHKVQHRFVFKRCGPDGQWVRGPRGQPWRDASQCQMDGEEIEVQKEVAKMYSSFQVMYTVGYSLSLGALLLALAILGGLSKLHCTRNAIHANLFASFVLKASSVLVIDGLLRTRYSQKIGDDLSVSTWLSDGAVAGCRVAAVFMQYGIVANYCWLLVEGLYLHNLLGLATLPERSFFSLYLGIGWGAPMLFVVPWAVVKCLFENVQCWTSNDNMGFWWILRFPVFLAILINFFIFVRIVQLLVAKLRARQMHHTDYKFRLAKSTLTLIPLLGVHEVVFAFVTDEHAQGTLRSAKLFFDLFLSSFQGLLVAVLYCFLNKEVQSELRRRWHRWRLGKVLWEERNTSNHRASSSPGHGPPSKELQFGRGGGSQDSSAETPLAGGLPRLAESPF

| Binder | In vitro activity relative to native peptide (%), vs. Glucagon (cAMP accumulation EC50, LANCE cAMP kit, CHO cells) (human glucagon receptor) | In vitro activity relative to native peptide (%), vs. GIP (cAMP accumulation EC50, LANCE cAMP kit, CHO cells) (human GIP receptor) | In vitro activity relative to native peptide (%), vs. GLP-1 (cAMP accumulation EC50, LANCE cAMP kit, CHO cells) (human GLP-1 receptor) |
| --- | --- | --- | --- |
| Y[Aib]QGTFTSDYSKYLDEQRAKEFVQWLLDHHPSSGQPPPSC-NH2 (bridge 16-20) [triple agonist peptide of SEQ ID NO: 1] | 443% | 51.5% | 16.6% |
| Y[Aib]QGTFTSDYSKYLDEQAAKEFVQWLLDHHPSSGQPPPSC-NH2 (bridge 16-20) [triple agonist peptide of SEQ ID NO: 2] | 146% | 150% | 91.4% |
| Y[Aib]QGTFTSDYSIYLDEKAAKEFVQWLLDQHPSSGQPPPSC-NH2 (bridge 16-20) [triple agonist peptide of SEQ ID NO: 11] | 10.2% | 33.7% | 77.6% |
| Y[Aib]QGTFTSDYSKALDEKAAKDFVQWLKDQHPSSGQPPPSC-NH2 (bridge 16-20) [triple agonist peptide of SEQ ID NO: 7] | 3.62% | 33.9% | 97.8% |
| Y[Aib]QGTFTSDYSKYLDEQRAKEFIAWLLDHHPSSGQPPPSC-NH2 (bridge 16-20) [triple agonist peptide of SEQ ID NO: 3] | 577% | 48.4% | 17.4% |
| Y[Aib]QGTFTSDYSIYLDEQRAKEFIAWLLAHHPSSGQPPPSC-NH2 (bridge 16-20) [triple agonist peptide of SEQ ID NO: 4] | 59.9% | 124% | 11.2% |
| Y[Aib]EGTFTSDYSEYMEKEAVREFICWLVKGGPSSGAPPPS-NH2 (bridge (positions not given here); not fully specified; also: ring formation between underlined and bold residues, places not given here) [triple agonist peptide of SEQ ID NO: 9] | 26.6% | 11.7% | 37% |
| Y[Aib]EGTFTSDYSIQLDKQAA[Aib]AFVQWLIAGGPSSGAPPPSK-NH2 [triple agonist peptide of SEQ ID NO: 12] | 6.6% | 52.8% | 87.2% |
| Y[Aib]QGTFTSDYSKYLDEKRAKEFVQWLLDQHPSSGQPPPSC-NH2 (bridge 16-20) [triple agonist peptide of SEQ ID NO: 5] | 826% | 35.5% | 49.1% |
| Y[Aib]QGTFTSDCSKYLDEKAAKEFVQWLLDHHPSSGQPPPS-NH2 (bridge 16-20) [triple agonist peptide of SEQ ID NO: 8] | 5.52% | 6.19% | 42.6% |
| Y[Aib]QGTFTSDYSKYLDERASKDFVQWLLDHHPSSGQPPPSC-NH2 (bridge 16-20) [triple agonist peptide of SEQ ID NO: 10] | 19% | 23.4% | 65.3% |
| Y[Aib]QGTFTSDYSKALDEKAAKDFVQWLLDQHPSSGQPPPSC-NH2 (bridge 16-20) [triple agonist peptide of SEQ ID NO: 6] | 78.1% | 513% | 89.5% |
